# B1: rPrL: recombinant Protein L (protein)
# chain: AVENKEETPETPETDSEEEVTIKANLIFANGSTQTAEFKGTFEKATSEAYAYADTLKKDNGEYTVDVADKGYTLNIKFAGKEKTPEEPKEEVTIKANLIYADGKTQTAEFKGTFEEATAEAYRYADALKKDNGEYTVDVADKGYTLNIKFAGKEKTPEEPKEEVTIKANLIYADGKTQTAEFKGTFEEATAEAYRYADLLAKENGKYTVDVADKGYTLNIKFAGKEKTPEEPKEEVTIKANLIYADGKTQTAEFKGTFAEATAEAYRYADLLAKENGKYTADLEDGGYTINIRFAGKKVDEKPEE
# Assay: LC chromatograms (LC-MS) of ligands before and after incubation in 0.1 M peracetic acid
# Format: physicochemical
# Conditions: 1 h incubation in 0.1 M peracetic acid, UV 280 nm
# Description: The kinetics was measured by Surface Plasmon Resonance on a Biacore™ instrument. […] 1 ml rPrL and KappaSelect ligand were diluted to 10 mg/ml. • 3. Reference sample (0 h) was withdrawn, 100 μl and buffer exchanged to 50 mM Ammonium Bicarbonate. • 4. 10% 1 M PAA was added and the incubations started. • 5. Samples were withdrawn after 1, 2, 4, 8, 16 and 24 h, 100 μl and buffer exchanged to 50 mM Ammonium Bicarbonate to stop the oxidation reaction. • 6. The concentrations were measured in all samples by measuring the UV absorbance at 276 nm. • 7. The samples were then analyzed on LC-MS and Biacore.
molecule,measurement,value
B1,LC chromatograms before and after SIP (degradation),no signs of degradation

# Reference: patent US20240226357A1, “Sanitization Method for Affinity Chromatography Matrices” (priority 2015, published 2024)
